US20240148898A1 (CELLEMEDY, published 2024)

Tests used:
[1] = target: T1, human transferrin receptor (human, UniProt P02786 89-760, limits assumed); assay: MST (Monolith NT.115), His-tag-dye-labelled protein, TfR titrated
T1 construct: also called TfR Human
Protocol: (§1) First, 100 μl of dye that specifically binds to a hexa-His tag (RED-tris-NTA 2nd Generation Dye) was prepared at a concentration of 50 nM, along with 100 μl of the produced protein at a concentration of 200 nM, followed by mixing the same and incubating at room temperature for 30 minutes. The incubated product was centrifuged at 13000 rpm for 10 minutes at 4° C. by a centrifuge, thus to separate the supernatant and obtain a dye-labeled protein.
(§2) Then, 25 μl of 9.65 μM transferrin receptor was added to the 1st PCR tube; 10 μl of PBS-T (PBS+0.5% tween 20) buffer was added to 2nd to 16th PCR tubes; 10 μl of transferrin in the 1st PCR tube was transferred to the 2nd PCR tube; and 10 μl was again transferred from the 2nd PCR tube to the 3rd PCR tube. Likewise, this procedure was continued up to the 16th tube thus to perform ½ dilution in a sequential order so that each of the 2nd to 16th PCR tubes becomes 20 μl.
(§3) Thereafter, 10 μl of the dye-labeled protein was added to each PCR tube, and the reaction was performed at room temperature for 1 hour.

[2] = target: T2, mouse transferrin receptor (mouse, UniProt Q62351 89-763, limits assumed); assay: as above
T2 construct: also called TfR Mouse
Protocol: as §1, §2, §3

[3] = target: T3, transferrin receptor (TfR), species not stated; assay: Microscale Thermophoresis (MST) with the transferrin receptor, Example 5; species of TfR not given on the sheet or in the legend (value coincides with the Mouse TfR row of Table 5)
T3 construct: also called the transferrin receptor
T3 sequence (P02786 whole entry): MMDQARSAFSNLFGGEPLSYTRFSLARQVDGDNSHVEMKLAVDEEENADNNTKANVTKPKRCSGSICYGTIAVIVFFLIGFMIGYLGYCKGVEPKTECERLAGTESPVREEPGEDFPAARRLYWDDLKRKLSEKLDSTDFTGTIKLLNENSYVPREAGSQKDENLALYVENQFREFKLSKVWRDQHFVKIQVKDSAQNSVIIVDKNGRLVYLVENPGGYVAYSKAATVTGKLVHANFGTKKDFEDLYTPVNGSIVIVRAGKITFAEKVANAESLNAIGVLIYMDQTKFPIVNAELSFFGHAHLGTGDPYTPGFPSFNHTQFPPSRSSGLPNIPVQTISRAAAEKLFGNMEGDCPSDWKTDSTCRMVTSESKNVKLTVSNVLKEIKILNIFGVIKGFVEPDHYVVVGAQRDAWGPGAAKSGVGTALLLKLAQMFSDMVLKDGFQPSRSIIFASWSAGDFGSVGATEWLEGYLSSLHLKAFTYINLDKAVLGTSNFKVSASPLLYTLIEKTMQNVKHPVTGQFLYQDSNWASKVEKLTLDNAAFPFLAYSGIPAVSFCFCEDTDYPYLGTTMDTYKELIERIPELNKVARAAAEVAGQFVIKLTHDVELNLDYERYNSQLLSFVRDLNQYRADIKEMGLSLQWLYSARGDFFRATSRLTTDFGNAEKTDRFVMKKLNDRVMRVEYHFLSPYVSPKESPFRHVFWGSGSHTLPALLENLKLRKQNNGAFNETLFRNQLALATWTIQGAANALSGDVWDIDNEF

T1 sequence (P02786 89-760 limits assumed): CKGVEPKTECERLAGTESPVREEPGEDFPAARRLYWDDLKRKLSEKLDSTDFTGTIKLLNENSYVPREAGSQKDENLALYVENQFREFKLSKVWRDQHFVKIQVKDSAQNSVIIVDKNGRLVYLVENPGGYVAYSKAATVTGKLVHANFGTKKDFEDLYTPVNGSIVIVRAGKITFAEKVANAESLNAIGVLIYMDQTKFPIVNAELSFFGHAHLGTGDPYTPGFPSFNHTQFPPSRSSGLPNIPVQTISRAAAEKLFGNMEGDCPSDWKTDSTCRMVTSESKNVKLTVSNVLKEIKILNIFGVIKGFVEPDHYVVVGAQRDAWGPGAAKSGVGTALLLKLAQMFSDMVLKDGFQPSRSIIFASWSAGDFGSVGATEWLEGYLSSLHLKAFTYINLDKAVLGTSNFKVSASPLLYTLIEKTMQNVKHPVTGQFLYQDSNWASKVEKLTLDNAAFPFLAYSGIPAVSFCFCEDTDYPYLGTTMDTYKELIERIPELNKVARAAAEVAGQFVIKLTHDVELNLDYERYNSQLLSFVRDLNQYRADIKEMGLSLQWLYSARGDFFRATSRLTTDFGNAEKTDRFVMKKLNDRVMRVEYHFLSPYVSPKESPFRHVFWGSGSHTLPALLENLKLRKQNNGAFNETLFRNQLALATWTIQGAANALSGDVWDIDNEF
T2 sequence (Q62351 89-763 limits assumed): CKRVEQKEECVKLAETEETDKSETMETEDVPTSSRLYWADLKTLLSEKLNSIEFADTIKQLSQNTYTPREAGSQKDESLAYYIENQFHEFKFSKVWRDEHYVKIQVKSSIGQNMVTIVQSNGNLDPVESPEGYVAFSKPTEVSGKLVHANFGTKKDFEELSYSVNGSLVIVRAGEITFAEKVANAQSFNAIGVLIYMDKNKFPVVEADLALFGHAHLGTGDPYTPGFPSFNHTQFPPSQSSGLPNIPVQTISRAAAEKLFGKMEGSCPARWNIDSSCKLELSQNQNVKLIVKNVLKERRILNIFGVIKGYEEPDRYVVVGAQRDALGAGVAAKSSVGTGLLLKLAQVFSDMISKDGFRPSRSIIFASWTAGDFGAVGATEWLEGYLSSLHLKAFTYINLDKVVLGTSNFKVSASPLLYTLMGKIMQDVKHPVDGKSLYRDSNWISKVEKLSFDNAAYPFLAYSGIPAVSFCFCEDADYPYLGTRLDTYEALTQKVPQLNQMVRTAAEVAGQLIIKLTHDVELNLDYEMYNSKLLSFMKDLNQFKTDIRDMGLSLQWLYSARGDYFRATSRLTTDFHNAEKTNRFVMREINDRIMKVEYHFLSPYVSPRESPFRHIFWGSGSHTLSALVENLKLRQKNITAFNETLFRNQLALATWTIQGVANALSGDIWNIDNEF

Binder	Kd [1] [nM]	Kd [2] [nM]	Kd [3] [nM]
NA-gp100-huHF (other, One monomer is given; the particle is a self-assembled 24-mer. In the MST assay the His tag carried RED-tris-NTA dye non-covalently., also called gp100 fused between N-terminus and A helix; TSA insertion site NA, gp100) MHHHHHHTTASTSKVPRNQDWLQVRQNYHQDSEAAINRQINLELYASYVYLSMSYYFDRDDVALKNFAKYFLHQSHEEREHAEKLMKLQNQRGGRIFLQDIKKPDCDDWESGLNAMECALHLEKNVNQSLLELHKLATDKNDPHLCDFIETHYLNEQVKAIKELGDHVTNLRKMGAPESGLAEYLFDKHTLGDSDNES	152	–	–
EC-gp100-huHF (other, One monomer is given; the particle is a self-assembled 24-mer. In the MST assay the His tag carried RED-tris-NTA dye non-covalently., also called gp100 fused between E helix and C-terminus; TSA insertion site EC, gp100) MHHHHHHEFTTASTSQVRQNYHQDSEAAINRQINLELYASYVYLSMSYYFDRDDVALKNFAKYFLHQSHEEREHAEKLMKLQNQRGGRIFLQDIKKPDCDDWESGLNAMECALHLEKNVNQSLLELHKLATDKNDPHLCDFIETHYLNEQVKAIKELGDHVTNLRKMGAPESGLAEYLFDKHTLGDSKVPRNQDWLDNES	5.68	–	–
BC-gp100-huHF (other, also called gp100-huHF (BC loop); TSA insertion site BC, gp100) HHHHHHMTTASTSQVRQNYHQDSEAAINRQINLELYASYVYLSMSYYFDRDDVALKNFAKYFLHQSHEEREHAEKLMKLQNQRGGRIFLQDIKKPDCDDKVPRNQDWLWESGLNAMECALHLEKNVNQSLLELHKLATDKNDPHLCDFIETHYLNEQVKAIKELGDHVTNLRKMGAPESGLAEYLFDKHTLGDSDNES	14	48	–
BC-AH1-huHF (other, also called AH1-huHF (BC loop); TSA insertion site BC, AH1) HHHHHHMTTASTSQVRQNYHQDSEAAINRQINLELYASYVYLSMSYYFDRDDVALKNFAKYFLHQSHEEREHAEKLMKLQNQRGGRIFLQDIKKPDCDDSPSYVYHQFWESGLNAMECALHLEKNVNQSLLELHKLATDKNDPHLCDFIETHYLNEQVKAIKELGDHVTNLRKMGAPESGLAEYLFDKHTLGDSDNES	107	–	–
AB-gp100-huHF (other, also called gp100-huHF (AB loop); TSA insertion site AB, gp100) HHHHHHMTTASTSQVRQNYHQDSEAAINRQINLELYASYVYLSMSYYFDRDDKVPRNQDWLVALKNFAKYFLHQSHEEREHAEKLMKLQNQRGGRIFLQDIKKPDCDDWESGLNAMECALHLEKNVNQSLLELHKLATDKNDPHLCDFIETHYLNEQVKAIKELGDHVTNLRKMGAPESGLAEYLFDKHTLGDSDNES	29.7	40.8	–
AB-AH1-huHF (other, also called AH1-huHF (AB loop); TSA insertion site AB, AH1) HHHHHHMTTASTSQVRQNYHQDSEAAINRQINLELYASYVYLSMSYYFDRDDSPSYVYHQFVALKNFAKYFLHQSHEEREHAEKLMKLQNQRGGRIFLQDIKKPDCDDWESGLNAMECALHLEKNVNQSLLELHKLATDKNDPHLCDFIETHYLNEQVKAIKELGDHVTNLRKMGAPESGLAEYLFDKHTLGDSDNES	10.9	–	–
CD-gp100-huHF (other, also called CD-loop-gp100; huHF-CD-gp100) HHHHHHMTTASTSQVRQNYHQDSEAAINRQINLELYASYVYLSMSYYFDRDDVALKNFAKYFLHQSHEEREHAEKLMKLQNQRGGRIFLQDIKKPDCDDWESGLNAMECALHLEKNVNQSLLELHKLATDKNDKVPRNQDWLPHLCDFIETHYLNEQVKAIKELGDHVTNLRKMGAPESGLAEYLFDKHTLGDSDNES	4.89	15.9	–
CD-AH1-huHF (other, also called huHF-CD loop-AH1; CD-loop-AH1) HHHHHHMTTASTSQVRQNYHQDSEAAINRQINLELYASYVYLSMSYYFDRDDVALKNFAKYFLHQSHEEREHAEKLMKLQNQRGGRIFLQDIKKPDCDDWESGLNAMECALHLEKNVNQSLLELHKLATDKNDSPSYVYHQFPHLCDFIETHYLNEQVKAIKELGDHVTNLRKMGAPESGLAEYLFDKHTLGDSDNES	3.45	–	–
DE-AH1-huHF (other, also called AH1-huHF (DE loop); TSA insertion site DE, AH1) HHHHHHMTTASTSQVRQNYHQDSEAAINRQINLELYASYVYLSMSYYFDRDDVALKNFAKYFLHQSHEEREHAEKLMKLQNQRGGRIFLQDIKKPDCDDWESGLNAMECALHLEKNVNQSLLELHKLATDKNDPHLCDFIETHYLNEQVKAIKELGDHVTNLRKMGAPESPSYVYHQFSGLAEYLFDKHTLGDSDNES	6.11	–	–
DE-gp100-huHF (other, One monomer is given; the particle is a self-assembled 24-mer. In the MST assay the His tag carried RED-tris-NTA dye non-covalently., also called huHF-DE-gp100; gp100-huHF (DE loop)) MHHHHHHLETTASTSQVRQNYHQDSEAAINRQINLELYASYVYLSMSYYFDRDDVALKNFAKYFLHQSHEEREHAEKLMKLQNQRGGRIFLQDIKKPDCDDWESGLNAMECALHLEKNVNQSLLELHKLATDKNDPHLCDFIETHYLNEQVKAIKELGDHVTNLRKMGAPEGSKVPRNQDWLEFSGLAEYLFDKHTLGDSDNES	9.78	30.5	30.5
